Source: patent publication US5273966

Tests used:
[1] = molecular target: high molecular weight binding protein (150K) in normal human serum (human); experiment: radiolabelled IGF-1 incubated with serum; area under the curves of the high and low molecular weight peaks
[2] = molecular target: high molecular weight binding protein (150K) in normal rat serum (rat); experiment: as above

percent bound to the large molecular weight form compared to the authentic IGF-1 [1]: 50 to 60%
percent bound to the large molecular weight form compared to the authentic IGF-1 [2]: 50 to 60%
Substance: O-glycosylated IGF-1 (ligand)
